Results: US20250346638

Tested on: TNF ATF 3 (synthetic construct)
Test: cell_activity
Settings: TNF ELISA about 100 pg/mL with CD3/CD28 Dynabeads vs shock; about 3-fold with stimulation cocktail and BFA (FIG. 15)

Chain of TNF ATF 3 (synthetic construct) (chain, as listed by the source): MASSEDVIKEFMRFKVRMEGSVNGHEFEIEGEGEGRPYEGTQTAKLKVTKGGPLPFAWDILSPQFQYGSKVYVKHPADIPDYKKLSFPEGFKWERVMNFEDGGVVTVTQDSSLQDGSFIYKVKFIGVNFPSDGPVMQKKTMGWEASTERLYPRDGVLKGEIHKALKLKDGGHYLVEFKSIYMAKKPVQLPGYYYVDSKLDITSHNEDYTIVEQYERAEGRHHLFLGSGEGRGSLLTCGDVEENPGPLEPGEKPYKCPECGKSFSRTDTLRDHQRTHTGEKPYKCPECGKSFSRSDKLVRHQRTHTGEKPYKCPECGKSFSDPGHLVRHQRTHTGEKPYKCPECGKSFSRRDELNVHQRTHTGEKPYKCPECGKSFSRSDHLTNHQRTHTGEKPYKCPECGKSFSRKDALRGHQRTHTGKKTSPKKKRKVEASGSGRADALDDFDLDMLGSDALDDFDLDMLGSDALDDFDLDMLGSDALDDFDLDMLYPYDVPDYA

TNF promoter ATF 3 target
activity: 5 fold
